The chains are these.
B1: CPEB3 Ribozyme (parent)
chain: GGGGGCCACAGCAGAAGCGUUCACGUCGCGGCCCCUGUCAGAUUCUGGUGAAUCUGCGAAUUCUGCUGU

The data set covers variants of B1. In words: self-cleavage, relative activity (ratio to wild type); higher = more cleavage; co-transcriptional.
With GGGGGCCACAGCAGAAGCGUUCACGUCGCGGCCGCUGUCAGAUUCUGGUGAAUCUGCGGAUUCUGCUGU [C34G A59G], the self-cleavage is 0.538. For the variant GGGGGCCACAGCAGAAGCGUUCACGUCGCGGCCGCUGUCAGAUUCUGGUGAAUCUGCGUAUUCUGCUGU [C34G A59U], the self-cleavage was 0.234.

For the variant GGGGGCCACAGCAGAAGCGUUCACGUCGCGGCCGCUGUCAGAUUCUGGUGAAUCUGCGAAUUGUGCUGU [C34G C63G], the self-cleavage was 0.338. The value for GGGGGCCACAGCAGAAGCGUUCACGUCGCGGCCGCUGUCAGAUUCUGGUGAAUCUGCGAAUUCUGGUGU [C34G C66G] was 0.434; that for GGGGGCCACAGCAGAAGCGUUCACGUCGCGGCCACUGUCAGAUUCUGGUGAACCUGCGAAUUCUGCUGU [C34A U53C] was 0.565.

As for GGGGGCCACAGCAGAAGCGUUCACGUCGCGGCCACUGUCAGAUUCUGGUGAAACUGCGAAUUCUGCUGU [C34A U53A], the self-cleavage is 0.409. GGGGGCCACAGCAGAAGCGUUCACGUCGCGGCCACUGUCAGAUUCUGGUGAAGCUGCGAAUUCUGCUGU [C34A U53G]: the self-cleavage was found to be 0.331. On to GGGGGCCACAGCAGAAGCGUUCACGUCGCGGCCACUGUCAGAUUCUGGUGAAUCUGCGAACUCUGCUGU [C34A U61C], for which the self-cleavage came out at 0.432. The value for GGGGGCCACAGCAGAAGCGUUCACGUCGCGGCCACUGUCAGAUUCUGGUGAAUCUGCGAAAUCUGCUGU [C34A U61A] was 0.466; that for GGGGGCCACAGCAGAAGCGUUCACGUCGCGGCCGCUGUCAGAUUCUGCUGAAUCUGCGAAUUCUGCUGU [C34G G48C] was 0.722; that for GGGGGCCACAGCAGAAGCGUUCACGUCGCGGCCGCUGUCAGAUUCUGUUGAAUCUGCGAAUUCUGCUGU [C34G G48U] was 0.753. As for GGGGGCCACAGCAGAAGCGUUCACGUCGCGGCCGCUGUCAGAUUCUGAUGAAUCUGCGAAUUCUGCUGU [C34G G48A], the figure is 0.765; as for GGGGGCCACAGCAGAAGCGUUCACGUCGCGGCCGCUGACAGAUUCUGGUGAAUCUGCGAAUUCUGCUGU [C34G U38A], 0.733; as for GGGGGCCACAGCAGAAGCGUUCACGUCGCGGCCACUGUCAGAGUCUGGUGAAUCUGCGAAUUCUGCUGU [C34A U43G], 0.479.

For the variant GGGGGCCACAGCAGAAGCGUUCACGUCGCGGCCACUGUCAGAAUCUGGUGAAUCUGCGAAUUCUGCUGU [C34A U43A], the self-cleavage worked out at 0.514.

On to GGGGGCCACAGCAGAAGCGUUCACGUCGCGGCCGCUGUCAGAUUCUGGAGAAUCUGCGAAUUCUGCUGU [C34G U49A], for which the self-cleavage was found to be 0.784.

Consider GGGGGCCACAGCAGAAGCGUUCACGUCGCGGCCGCUGUCAGAUUCUGGCGAAUCUGCGAAUUCUGCUGU [C34G U49C], for which the self-cleavage stood at 0.689. As for GGGGGCCACAGCAGAAGCGUUCACGUCGCGGCCGCUGUCAGAUUCUGGGGAAUCUGCGAAUUCUGCUGU [C34G U49G], the figure is 0.64; as for GGGGGCCACAGCAGAAGCGUUCACGUCGCGGCCACUGUCAGAUUCGGGUGAAUCUGCGAAUUCUGCUGU [C34A U46G], 0.843; as for GGGGGCCACAGCAGAAGCGUUCACGUCGCGGCCGCUGUCAGAUUCUGGUGAAUCUGGGAAUUCUGCUGU [C34G C57G], 0.332.

Turning to GGGGGCCACAGCAGAAGCGUUCACGUCGCGGCCGCUGUCAGAUCCUGGUGAAUCUGCGAAUUCUGCUGU [C34G U44C], the self-cleavage turned out to be 0.578. As for GGGGGCCACAGCAGAAGCGUUCACGUCGCGGCCGCUGUCAGAUGCUGGUGAAUCUGCGAAUUCUGCUGU [C34G U44G], the figure is 0.446; as for GGGGGCCACAGCAGAAGCGUUCACGUCGCGGCCACUGUCAGAUUCUGGUGAAUCUGCGAAUUCUGCUGG [C34A U69G], 0.947; as for GGGGGCCACAGCAGAAGCGUUCACGUCGCGGCCACUGUCAGAUUCUGGUGAAUCUGCGAAUUCUGCUGA [C34A U69A], 0.971.

For GGGGGCCACAGCAGAAGCGUUCACGUCGCGGCCGCUGUCAGAUUCUGGUGAAUCUACGAAUUCUGCUGU [C34G G56A], the self-cleavage stood at 0.579. As for GGGGGCCACAGCAGAAGCGUUCACGUCGCGGCCGCUGUCAGAUUCUGGUGAAUCUUCGAAUUCUGCUGU [C34G G56U], the figure is 0.538; as for GGGGGCCACAGCAGAAGCGUUCACGUCGCGGCCGCUGUCAGAUUCUGGUGAUUCUGCGAAUUCUGCUGU [C34G A52U], 0.661; as for GGGGGCCACAGCAGAAGCGUUCACGUCGCGGCCACUGUCAGAUUCUGGCGAAUCUGCGAAUUCUGCUGU [C34A U49C], 0.79. As for GGGGGCCACAGCAGAAGCGUUCACGUCGCGGCCACUGUCAGAUUCUGGAGAAUCUGCGAAUUCUGCUGU [C34A U49A], the figure is 0.867; as for GGGGGCCACAGCAGAAGCGUUCACGUCGCGGCCGCUGUCAGAUUCUGGUGAAUCUGCGAAUUCUGCUGU [C34G], 0.74.

As to GGGGGCCACAGCAGAAGCGUUCACGUCGCGGCCGCUGUCAGAUUCGGGUGAAUCUGCGAAUUCUGCUGU [C34G U46G], the self-cleavage came to 0.766.

Consider GGGGGCCACAGCAGAAGCGUUCACGUCGCGGCCGCUGUCAGAUUCAGGUGAAUCUGCGAAUUCUGCUGU [C34G U46A], for which the self-cleavage amounted to 0.776. As for GGGGGCCACAGCAGAAGCGUUCACGUCGCGGCCACUGUCAGAUGCUGGUGAAUCUGCGAAUUCUGCUGU [C34A U44G], the figure is 0.526; as for GGGGGCCACAGCAGAAGCGUUCACGUCGCGGCCACUGUCAGAUCCUGGUGAAUCUGCGAAUUCUGCUGU [C34A U44C], 0.724. As for GGGGGCCACAGCAGAAGCGUUCACGUCGCGGCCGCUGUCAGAUUCUGGUGGAUCUGCGAAUUCUGCUGU [C34G A51G], the figure is 0.625. As for GGGGGCCACAGCAGAAGCGUUCACGUCGCGGCCGCUGUCAGAUUCUGGUGCAUCUGCGAAUUCUGCUGU [C34G A51C], the figure is 0.504; as for GGGGGCCACAGCAGAAGCGUUCACGUCGCGGCCGCUGUCAGAUUCUGGUGUAUCUGCGAAUUCUGCUGU [C34G A51U], 0.671. For the variant GGGGGCCACAGCAGAAGCGUUCACGUCGCGGCCGCGGUCAGAUUCUGGUGAAUCUGCGAAUUCUGCUGU [C34G U36G], the self-cleavage worked out at 0.263. The value for GGGGGCCACAGCAGAAGCGUUCACGUCGCGGCCGCCGUCAGAUUCUGGUGAAUCUGCGAAUUCUGCUGU [C34G U36C] was 0.819.

(Values after the RNAGym collection of RNA variant scans (doi:10.7554/elife.80360).)
